Assay results: PMC2171589 (The Journal of Cell Biology, 2005)

B1: ARF1, full-length myristoylated form (ADP ribosylation factor 1) (natural protein)
chain: not shown
modifications: myristoylated

Legend:
Test in all cases: pull-down
[1] = molecular target: ARFGAP1 as a GST fusion protein (GST-ARFGAP1) (UniProt Q62848 1-415)
[2] = molecular target: point mutant GAP (R50K) as GST fusion protein (GST-R50K GAP) (UniProt Q62848 1-415, R50K)
[3] = molecular target: ARFGAP1, wild-type, 6x-his tagged, soluble (UniProt Q62848 1-415)
[4] = molecular target: His-tagged, full-length, R50K point mutant GAP (UniProt Q62848 1-415, R50K)
Sequence of His-tagged, full-length, R50K point mutant GAP (Q62848 whole entry R50K): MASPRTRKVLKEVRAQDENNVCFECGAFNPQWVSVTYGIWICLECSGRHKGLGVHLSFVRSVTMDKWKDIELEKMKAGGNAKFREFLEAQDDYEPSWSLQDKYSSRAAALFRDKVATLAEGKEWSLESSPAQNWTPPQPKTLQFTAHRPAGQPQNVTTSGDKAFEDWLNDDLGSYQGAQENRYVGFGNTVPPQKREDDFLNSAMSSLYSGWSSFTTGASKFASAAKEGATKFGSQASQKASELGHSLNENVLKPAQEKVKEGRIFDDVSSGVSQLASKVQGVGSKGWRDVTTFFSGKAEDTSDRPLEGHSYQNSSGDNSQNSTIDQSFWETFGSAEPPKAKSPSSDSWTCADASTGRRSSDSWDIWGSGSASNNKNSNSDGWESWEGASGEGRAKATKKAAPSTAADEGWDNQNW

Sequence of point mutant GAP (R50K) as GST fusion protein (GST-R50K GAP) (Q62848 whole entry R50K, the tested form may be a part): as the sequence (Q62848 whole entry R50K) above
Sequence of ARFGAP1, wild-type, 6x-his tagged, soluble (Q62848 whole entry): as the sequence (Q62848 whole entry R50K) above, with K50R counted along it
Sequence of ARFGAP1 as a GST fusion protein (GST-ARFGAP1) (Q62848 whole entry, the tested form may be a part): as the sequence (Q62848 whole entry R50K) above, with K50R counted along it

Binder	binding result [1]	binding result [2]	binding result [3]	binding result [4]
B1	binds	binds		
KKLETFKKTN (domain or fragment) [GST-Wbp1 (cytoplasmic domain of Wbp1 fused to GST)]			binds	binds
